Test results reported in patent publication US20180072811A1 (GENERAL HOSPITAL, published 2018).

Biological target: T1, chondroitin sulfate proteoglycan 4 (CSPG4), human (human, UniProt Q6UVK1 30-2322)
T1 construct: whole, on cells; Cell surface proteoglycan; also called MCSP; NG2
Assay: reactivity of single scFv clones with CSPG4+ SK-MEL-28 melanoma cells and CSPG4- LG2 B lymphoid cells

T1 sequence (Q6UVK1 30-2322): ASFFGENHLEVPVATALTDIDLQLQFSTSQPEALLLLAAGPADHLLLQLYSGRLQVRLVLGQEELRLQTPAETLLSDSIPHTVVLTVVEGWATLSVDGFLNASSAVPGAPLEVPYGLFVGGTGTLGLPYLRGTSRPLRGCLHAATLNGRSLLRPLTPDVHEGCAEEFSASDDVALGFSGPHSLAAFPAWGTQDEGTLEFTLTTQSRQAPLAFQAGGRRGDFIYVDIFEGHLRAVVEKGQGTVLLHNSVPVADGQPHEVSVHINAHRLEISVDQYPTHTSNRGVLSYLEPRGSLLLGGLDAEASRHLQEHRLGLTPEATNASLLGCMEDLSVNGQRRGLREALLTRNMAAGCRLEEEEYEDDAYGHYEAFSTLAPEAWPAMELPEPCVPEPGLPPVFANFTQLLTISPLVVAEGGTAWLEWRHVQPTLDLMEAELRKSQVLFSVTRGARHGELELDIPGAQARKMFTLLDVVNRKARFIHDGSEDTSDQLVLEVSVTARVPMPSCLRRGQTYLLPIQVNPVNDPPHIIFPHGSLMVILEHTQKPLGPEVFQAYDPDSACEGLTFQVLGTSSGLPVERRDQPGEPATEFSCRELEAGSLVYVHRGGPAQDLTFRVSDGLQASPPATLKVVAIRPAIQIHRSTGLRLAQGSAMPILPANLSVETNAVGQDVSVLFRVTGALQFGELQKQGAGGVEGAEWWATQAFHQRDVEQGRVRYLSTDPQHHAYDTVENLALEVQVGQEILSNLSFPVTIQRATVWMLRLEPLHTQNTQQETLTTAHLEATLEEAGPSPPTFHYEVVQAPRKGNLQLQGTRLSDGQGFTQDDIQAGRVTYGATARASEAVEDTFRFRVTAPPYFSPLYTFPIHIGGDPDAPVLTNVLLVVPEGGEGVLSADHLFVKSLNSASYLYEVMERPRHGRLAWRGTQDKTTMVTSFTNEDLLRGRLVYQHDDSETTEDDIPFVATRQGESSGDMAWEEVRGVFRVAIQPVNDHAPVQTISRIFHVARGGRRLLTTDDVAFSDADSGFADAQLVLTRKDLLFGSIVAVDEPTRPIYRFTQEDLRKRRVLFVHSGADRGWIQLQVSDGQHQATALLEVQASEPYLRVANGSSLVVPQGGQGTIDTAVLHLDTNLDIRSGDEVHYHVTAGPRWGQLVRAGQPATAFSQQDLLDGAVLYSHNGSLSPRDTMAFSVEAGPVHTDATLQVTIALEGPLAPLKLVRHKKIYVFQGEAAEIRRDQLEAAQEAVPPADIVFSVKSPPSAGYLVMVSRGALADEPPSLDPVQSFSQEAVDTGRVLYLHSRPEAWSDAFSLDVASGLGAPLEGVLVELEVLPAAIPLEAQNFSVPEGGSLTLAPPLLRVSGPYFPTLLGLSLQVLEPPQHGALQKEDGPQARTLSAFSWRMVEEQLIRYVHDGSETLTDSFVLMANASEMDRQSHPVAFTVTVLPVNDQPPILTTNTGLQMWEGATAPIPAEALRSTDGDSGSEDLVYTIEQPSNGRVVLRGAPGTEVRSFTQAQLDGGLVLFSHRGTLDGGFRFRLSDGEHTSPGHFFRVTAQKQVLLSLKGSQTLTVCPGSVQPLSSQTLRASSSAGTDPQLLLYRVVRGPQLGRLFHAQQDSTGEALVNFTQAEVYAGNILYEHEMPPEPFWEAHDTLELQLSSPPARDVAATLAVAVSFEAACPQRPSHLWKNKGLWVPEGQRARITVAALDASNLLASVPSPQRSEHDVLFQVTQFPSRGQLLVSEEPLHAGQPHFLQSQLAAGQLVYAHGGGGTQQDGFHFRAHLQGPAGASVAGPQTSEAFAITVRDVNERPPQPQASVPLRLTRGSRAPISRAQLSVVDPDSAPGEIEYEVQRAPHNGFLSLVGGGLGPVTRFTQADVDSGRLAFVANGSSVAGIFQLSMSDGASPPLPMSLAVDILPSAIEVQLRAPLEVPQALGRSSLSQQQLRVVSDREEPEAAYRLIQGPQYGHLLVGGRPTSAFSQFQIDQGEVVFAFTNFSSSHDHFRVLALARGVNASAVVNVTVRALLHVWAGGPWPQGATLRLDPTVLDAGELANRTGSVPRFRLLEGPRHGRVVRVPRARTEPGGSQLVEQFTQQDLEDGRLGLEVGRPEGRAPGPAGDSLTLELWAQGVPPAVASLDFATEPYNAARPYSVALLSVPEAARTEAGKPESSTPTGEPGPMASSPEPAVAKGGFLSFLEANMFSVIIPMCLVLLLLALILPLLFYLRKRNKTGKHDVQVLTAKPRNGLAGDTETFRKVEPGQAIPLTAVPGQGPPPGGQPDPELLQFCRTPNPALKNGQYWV

B1: scFv SK5 (scFv)
scFv: MAEVQLVESGGGVVRPGGSLRLSCAASGFTFDDYGMSWVRQAPGKGLEWVSGINWNGGSTGYADSVKGRFTISRDNAKNSLYLQMNSLRAEDTAVYYCARGVLSRYFDYWGQGTLVTVSSGGGGSGGGGSGGGGSEIELTQSPATLSLSPGERATLSCRASQSVSSYLAWYQQKPGQAPRLLIYDASNRATGIPARFSGSGSGTDFTLTISSLEPEDFAVYYCQQRSNWPPAFGGGTKVEIKRAA
notes: Fully human scFv from a semi-synthetic phage display library; Tested as soluble scFv in supernatant with a c-Myc tag, detected through mAb 9E10; also called CSPG4-specific human scFv SK5
binding result: binds
